In article PMC12111831, “Phase-Separated Multienzyme Condensates for Efficient Synthesis of Imines from Carboxylic Acids with Enhanced Dual-Cofactor Recycling” (International Journal of Molecular Sciences, 2025):

Columns and labels:
[1] = target: T1, AspRedAm (Aspergillus oryzae, UniProt Q2TW47); assay: NADPH absorbance at […] nm, specific activity; format: biochemical; conditions: 10 mM aldehyde, 20 mM amine, 0.2 mM NADPH, MOPS pH 7.5, 30 °C
T1 sequence (Q2TW47 1-295): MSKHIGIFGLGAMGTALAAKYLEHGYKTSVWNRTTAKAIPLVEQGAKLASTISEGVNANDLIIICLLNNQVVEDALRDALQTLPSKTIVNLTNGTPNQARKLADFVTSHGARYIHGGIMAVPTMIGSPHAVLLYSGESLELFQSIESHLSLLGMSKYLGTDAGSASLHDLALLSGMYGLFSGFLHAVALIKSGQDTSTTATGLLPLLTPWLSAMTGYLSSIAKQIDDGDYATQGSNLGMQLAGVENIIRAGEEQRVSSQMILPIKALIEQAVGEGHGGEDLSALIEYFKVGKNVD

[2] = test system: O=C(O)c1ccccc1; assay: purified protein; conditions: ATP, NADPH, Mg2+, 30 °C
[3] = test system: COc1ccc(C(=O)O)cc1; assay: purified protein, by the assay type; conditions: pH 7.5; 30.0 °C
Procedure: (§1) Varying substrate concentrations were dissolved in 250 mM NaOH. Substrate-free controls were included for baseline correction. Kinetic parameters were derived via the nonlinear regression of Michaelis–Menten plots using OriginPro 2021 SR2 (64-bit) Build 9.8.0.240.

[4] = test system: Cc1ccc(C(=O)O)cc1; assay: purified protein, by the assay type; conditions: pH 7.5; 30.0 °C
Procedure: as §1

[5] = test system: CCCC(=O)O; assay: purified protein, by the assay type; conditions: pH 7.5; 30.0 °C
Procedure: as §1

[6] = test system: O=C(O)c1ccc2c(c1)OCO2; assay: purified protein, by the assay type; conditions: pH 7.5; 30.0 °C
Procedure: as §1

[7] = test system: O=C(O)CCc1ccccc1; assay: purified protein, by the assay type; conditions: pH 7.5; 30.0 °C
Procedure: as §1

For `NC1CC1` [cyclopropylamine], the “NADPH absorbance at 340 nm, specific activity” value ([1]; not with aldehyde 2h) was “both enzymes exhibited catalytic activity toward all tested substrates, except for substrate 2h with cyclopropylamine”.
For `C#CCN` [propargylamine], the “NADPH absorbance at 340 nm, specific activity” value [1] was “both enzymes exhibited catalytic activity toward all tested substrates, except for substrate 2h with cyclopropylamine”.
Molecule NiCAR (Nocardia iowensis) has a Km [2] of 450 ± 30 µM, a kcat [2] of 3.9227 ± 0.0378 s⁻¹ and a Km [3] of 1580 ± 140 µM. The kcat [3] was 1.89 ± 0.0387 s⁻¹, the Km [4] was 1850 ± 160 µM and the kcat [4] was 3.17 ± 0.0792 s⁻¹. The Km [5] was 101930 ± 21090 µM, the kcat [5] was 5.56 ± 1.05 s⁻¹ and the Km [6] was 4490 ± 620 µM. It also gave a kcat [6] of 1.58 ± 0.0875 s⁻¹, a Km [7] of 1040 ± 90 µM and a kcat [7] of 3.15 ± 0.0588 s⁻¹.
